The numbers were not newly measured in PMC4253632, which cites them from elsewhere.

The target in the data set is Syntaxin 4 (Homo sapiens) (UniProt Q12846).
Sequence of UniProt Q12846 (Q12846 whole entry): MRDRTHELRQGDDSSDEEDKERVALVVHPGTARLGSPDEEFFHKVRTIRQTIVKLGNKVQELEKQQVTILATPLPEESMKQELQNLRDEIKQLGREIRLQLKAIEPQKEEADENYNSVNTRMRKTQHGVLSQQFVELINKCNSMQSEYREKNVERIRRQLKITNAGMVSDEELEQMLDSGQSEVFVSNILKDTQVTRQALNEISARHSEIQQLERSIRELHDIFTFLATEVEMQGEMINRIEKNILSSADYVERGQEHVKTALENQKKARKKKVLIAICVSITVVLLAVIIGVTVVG

On to Munc18c (from UniProt O00186), for which the Kd is 30 nM.
